The text below walks through data of article PMC3756924 (Molecular Biology of the Cell, 2013).

The chains are these.
B2: hexahistidine (His6)-Sit4p (enzyme, S. cerevisiae, UniProt P20604 1-311, looked up)
chain: MVSRGPDEWLETIKKCQALTENEMKQLCEMVKELLMEESNIQPVQTPVTVCGDIHGQFHDLLELFRTAGGFPDDINYIFLGDYVDRGYYSLETFTLLMCLKVKYPAKITLVRGNHESRQITQVYGFYEECLNKYGSTTVWKYCCQVFDFLTLAAIIDGKILCVHGGLSPEIRMLDQIRVLSRAQEVPHEGGFSDLLWSDPDNVEAWQVSPRGAGWLFGSKVAREFNHVNGLNLIARAHQLVMEGFKYHFPEKDVVTVWSAPNYCYRCGNVASVMKVDEDLEPTFKIFSAVPDDYIRESTANHNNQRAGYFL

Common to all, as to assay: pull-down
Assay [1] addresses B2.
The target of assay [2] is T1, GST-Sec31p (aa 1–500) (S. cerevisiae, UniProt P38968 1-500).
T1 sequence (looked up): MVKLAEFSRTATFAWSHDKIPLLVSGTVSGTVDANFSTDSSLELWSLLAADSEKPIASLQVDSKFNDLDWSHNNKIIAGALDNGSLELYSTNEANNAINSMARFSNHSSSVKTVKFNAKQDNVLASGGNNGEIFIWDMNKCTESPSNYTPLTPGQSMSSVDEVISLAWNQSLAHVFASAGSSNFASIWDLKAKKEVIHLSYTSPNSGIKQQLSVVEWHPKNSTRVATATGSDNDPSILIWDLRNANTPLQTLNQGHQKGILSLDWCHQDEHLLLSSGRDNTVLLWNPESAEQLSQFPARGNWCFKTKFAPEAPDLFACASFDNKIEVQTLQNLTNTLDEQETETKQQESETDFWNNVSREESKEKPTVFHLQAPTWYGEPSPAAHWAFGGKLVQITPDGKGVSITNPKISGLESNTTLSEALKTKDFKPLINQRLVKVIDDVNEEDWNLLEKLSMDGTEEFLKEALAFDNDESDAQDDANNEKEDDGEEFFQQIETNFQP

The target in assay [3] is T2, GST-Sec23p (S. cerevisiae, UniProt P15303 1-768).
T2 sequence (looked up): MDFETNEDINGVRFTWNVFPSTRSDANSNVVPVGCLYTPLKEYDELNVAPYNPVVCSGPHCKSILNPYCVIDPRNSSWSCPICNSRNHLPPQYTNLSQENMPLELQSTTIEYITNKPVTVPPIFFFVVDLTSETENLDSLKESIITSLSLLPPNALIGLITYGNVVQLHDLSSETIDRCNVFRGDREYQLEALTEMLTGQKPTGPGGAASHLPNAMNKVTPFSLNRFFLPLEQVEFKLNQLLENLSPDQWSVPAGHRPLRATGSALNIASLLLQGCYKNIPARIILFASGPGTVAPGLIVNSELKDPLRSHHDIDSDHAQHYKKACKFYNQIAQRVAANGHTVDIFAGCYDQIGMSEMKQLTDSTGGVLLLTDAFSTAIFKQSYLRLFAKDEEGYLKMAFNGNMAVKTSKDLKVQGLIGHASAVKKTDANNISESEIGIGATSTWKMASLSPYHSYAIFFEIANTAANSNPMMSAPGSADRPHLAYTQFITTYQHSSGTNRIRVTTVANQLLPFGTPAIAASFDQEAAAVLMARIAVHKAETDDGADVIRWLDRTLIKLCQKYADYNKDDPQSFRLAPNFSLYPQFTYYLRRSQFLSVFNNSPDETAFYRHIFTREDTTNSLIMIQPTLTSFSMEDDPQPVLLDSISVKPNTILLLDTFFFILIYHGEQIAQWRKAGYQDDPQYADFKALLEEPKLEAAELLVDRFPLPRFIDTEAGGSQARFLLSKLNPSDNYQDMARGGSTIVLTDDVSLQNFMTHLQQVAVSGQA

For assay [4], the target named is T3, GST-Sec24p (S. cerevisiae, UniProt P40482 1-926).
T3 sequence (looked up): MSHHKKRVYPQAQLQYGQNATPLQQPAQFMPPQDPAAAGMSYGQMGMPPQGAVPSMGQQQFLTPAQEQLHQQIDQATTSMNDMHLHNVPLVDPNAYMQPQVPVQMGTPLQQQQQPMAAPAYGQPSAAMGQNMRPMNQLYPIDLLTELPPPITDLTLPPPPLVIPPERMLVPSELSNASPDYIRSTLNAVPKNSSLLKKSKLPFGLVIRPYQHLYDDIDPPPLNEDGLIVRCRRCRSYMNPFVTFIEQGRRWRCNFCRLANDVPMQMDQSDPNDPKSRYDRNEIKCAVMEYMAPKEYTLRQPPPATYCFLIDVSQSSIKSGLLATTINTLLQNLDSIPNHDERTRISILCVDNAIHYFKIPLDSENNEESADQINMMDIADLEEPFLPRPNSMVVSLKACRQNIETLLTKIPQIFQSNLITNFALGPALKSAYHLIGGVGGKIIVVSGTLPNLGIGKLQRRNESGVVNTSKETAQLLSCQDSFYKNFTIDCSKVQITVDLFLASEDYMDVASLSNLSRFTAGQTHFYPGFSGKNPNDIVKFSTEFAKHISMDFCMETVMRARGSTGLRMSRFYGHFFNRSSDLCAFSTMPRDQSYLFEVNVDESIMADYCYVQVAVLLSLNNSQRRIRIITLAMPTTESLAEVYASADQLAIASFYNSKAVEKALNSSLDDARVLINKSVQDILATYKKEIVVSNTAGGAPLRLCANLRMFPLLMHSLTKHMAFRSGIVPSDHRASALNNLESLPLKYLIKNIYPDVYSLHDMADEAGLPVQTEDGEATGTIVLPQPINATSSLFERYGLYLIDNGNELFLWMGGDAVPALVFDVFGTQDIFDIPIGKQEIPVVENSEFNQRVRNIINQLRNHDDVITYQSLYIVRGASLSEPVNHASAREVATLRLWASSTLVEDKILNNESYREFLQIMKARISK

The target in assay [5] is T4, GST-Lst1p (S. cerevisiae, UniProt P38810 1-929).
T4 sequence (looked up): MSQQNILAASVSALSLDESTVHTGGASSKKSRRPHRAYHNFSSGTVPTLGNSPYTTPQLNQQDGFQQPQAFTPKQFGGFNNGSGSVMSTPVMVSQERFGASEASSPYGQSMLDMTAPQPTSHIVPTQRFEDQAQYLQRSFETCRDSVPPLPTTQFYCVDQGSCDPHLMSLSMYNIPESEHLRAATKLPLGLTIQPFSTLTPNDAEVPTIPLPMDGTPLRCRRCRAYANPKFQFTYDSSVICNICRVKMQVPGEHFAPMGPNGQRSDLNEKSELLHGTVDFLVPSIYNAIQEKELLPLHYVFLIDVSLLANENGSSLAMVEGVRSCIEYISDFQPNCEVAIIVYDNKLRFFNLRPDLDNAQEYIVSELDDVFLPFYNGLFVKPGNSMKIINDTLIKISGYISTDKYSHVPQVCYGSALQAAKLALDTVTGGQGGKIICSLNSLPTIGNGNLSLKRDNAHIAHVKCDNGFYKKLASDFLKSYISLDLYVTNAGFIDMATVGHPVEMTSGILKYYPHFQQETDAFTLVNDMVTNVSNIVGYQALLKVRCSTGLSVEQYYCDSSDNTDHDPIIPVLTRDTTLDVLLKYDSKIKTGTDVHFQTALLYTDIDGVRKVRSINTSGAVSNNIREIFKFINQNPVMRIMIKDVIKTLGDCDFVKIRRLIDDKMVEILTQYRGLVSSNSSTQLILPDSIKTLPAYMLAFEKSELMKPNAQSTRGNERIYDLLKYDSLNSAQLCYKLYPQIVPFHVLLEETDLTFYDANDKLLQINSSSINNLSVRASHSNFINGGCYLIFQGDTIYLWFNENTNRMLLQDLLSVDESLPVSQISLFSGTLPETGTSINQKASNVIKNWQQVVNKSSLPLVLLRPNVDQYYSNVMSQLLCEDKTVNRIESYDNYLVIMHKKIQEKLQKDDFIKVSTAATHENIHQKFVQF

B1: GST-Sec31p (aa 1115–1273) (domain or fragment, S. cerevisiae, UniProt P38968 1115-1273, looked up)
chain: RSNKLASIEQNPSQGATYPPTLSSSASPLQPSQPPTLASQVNTSAENVSHEIPADQQPIVDFLKEELARVTPLTPKEYSKQLKDCDKRLKILFYHLEKQDLLTQPTIDCLHDLVALMKEKKYKEAMVIHANIATNHAQEGGNWLTGVKRLIGIAEATLN
B1: in assay [1], the binding result is on record as “binds”.
As to B2, the binding result in assay [2], in assay [3], in assay [4] and in assay [5] was “binds” each time.
